Patent publication US11833164B2, “Methods of treating Fabry disease in patients having a mutation in the GLA gene” (Amicus Therapeutics, Inc., priority 2019, dated 2023)

Test system: mutant form of α-Gal A expressed in HEK-293 cells
Experiment: HEK assay (GLP HEK / Migalastat Amenability Assay): α-Gal A activity in lysates of transiently transfected HEK-293 cells incubated with or without 10 μM migalastat
Format: cell-based, human
Settings: for Absolute increase (% WT): 10 μM migalastat versus baseline; for Relative increase: 10 μM migalastat α-Gal A activity relative to baseline; for 10 μM migalastat α-Gal A activity (% WT): 5 days; for 10 μM migalastat α-Gal A activity (% WT) / Baseline α-Gal A activity (% WT): percentage of baseline wild-type α-Gal A activity; for 10 μM migalastat α-Gal A activity (% WT) / Baseline α-Gal A activity (% WT) / Baseline α-Gal A activity / 10 μM migalastat α-Gal A activity: mean ± SEM; for Baseline α-Gal A activity (% WT): absence of migalastat; for Baseline α-Gal A activity / 10 μM migalastat α-Gal A activity: lysates of HEK-293 cells transfected with the mutant form; for Baseline α-Gal A activity: incubated 5 days in the absence of migalastat; for 10 μM migalastat α-Gal A activity: incubated 5 days with 10 μM migalastat
In short: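 HEK-293 cells transiently transfected with mutant α-Gal A and incubated with or without 10 μM migalastat; lysate activity given as nmol free 4-MU released per mg protein per hour. Values are mean±SEM.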

| Molecule | Absolute increase (% WT) | Relative increase | 10 μM migalastat α-Gal A activity (% WT) | Baseline α-Gal A activity (% WT) | Baseline α-Gal A activity [nmol/mg/h] | 10 μM migalastat α-Gal A activity [nmol/mg/h] |
| --- | --- | --- | --- | --- | --- | --- |
| K185T (protein) MQLRNPELHLGCALALRFLALVSWDIPGARALDNGLARTPTMGWLHWERFMCNLDCQEEPDSCISEKLFMEMAELMVSEGWKDAGYEYLCIDDCWMAPQRDSEGRLQADPQRFPHGIRQLANYVHSKGLKLGIYADVGNKTCAGFPGSFGYYDIDAQTFADWGVDLLKFDGCYCDSLENLADGYTHMSLALNRTGRSIVYSCEWPLYMWPFQKPNYTEIRQYCNHWRNFADIDDSWKSIKSILDWTSFNQERIVDVAGPGGWNDPDMLVIGNFGLSWNQQVTQMALWAIMAAPLFMSNDLRHISPQAKALLQDKDVIAINQDPLGKQGYQLRQGDNFEVWERPLSGLAWAVAMINRQEIGGPRSYTIAVASLGKGVACNPACFITQLLPVKRKLGFYEWTSRLRSHINPTGTVLLQLENTMQMSLKDLL | 19.0 | 1.2 | 92.6 ± 7.8 | 73.6 ± 4.4 | 32028 ± 1167 | 39805 ± 2259 |
| M187L (protein) MQLRNPELHLGCALALRFLALVSWDIPGARALDNGLARTPTMGWLHWERFMCNLDCQEEPDSCISEKLFMEMAELMVSEGWKDAGYEYLCIDDCWMAPQRDSEGRLQADPQRFPHGIRQLANYVHSKGLKLGIYADVGNKTCAGFPGSFGYYDIDAQTFADWGVDLLKFDGCYCDSLENLADGYKHLSLALNRTGRSIVYSCEWPLYMWPFQKPNYTEIRQYCNHWRNFADIDDSWKSIKSILDWTSFNQERIVDVAGPGGWNDPDMLVIGNFGLSWNQQVTQMALWAIMAAPLFMSNDLRHISPQAKALLQDKDVIAINQDPLGKQGYQLRQGDNFEVWERPLSGLAWAVAMINRQEIGGPRSYTIAVASLGKGVACNPACFITQLLPVKRKLGFYEWTSRLRSHINPTGTVLLQLENTMQMSLKDLL | 29.2 | 6.7 | 34.5 ± 1.9 | 5.3 ± 0.2 | 1924 ± 64 | 12810 ± 929 |
| H186Y (protein) MQLRNPELHLGCALALRFLALVSWDIPGARALDNGLARTPTMGWLHWERFMCNLDCQEEPDSCISEKLFMEMAELMVSEGWKDAGYEYLCIDDCWMAPQRDSEGRLQADPQRFPHGIRQLANYVHSKGLKLGIYADVGNKTCAGFPGSFGYYDIDAQTFADWGVDLLKFDGCYCDSLENLADGYKYMSLALNRTGRSIVYSCEWPLYMWPFQKPNYTEIRQYCNHWRNFADIDDSWKSIKSILDWTSFNQERIVDVAGPGGWNDPDMLVIGNFGLSWNQQVTQMALWAIMAAPLFMSNDLRHISPQAKALLQDKDVIAINQDPLGKQGYQLRQGDNFEVWERPLSGLAWAVAMINRQEIGGPRSYTIAVASLGKGVACNPACFITQLLPVKRKLGFYEWTSRLRSHINPTGTVLLQLENTMQMSLKDLL | 39.8 | 1.4 | 123.6 ± 8.9 | 83.8 ± 4.5 | 37644 ± 2421 | 53613 ± 2581 |
| H186D (protein) MQLRNPELHLGCALALRFLALVSWDIPGARALDNGLARTPTMGWLHWERFMCNLDCQEEPDSCISEKLFMEMAELMVSEGWKDAGYEYLCIDDCWMAPQRDSEGRLQADPQRFPHGIRQLANYVHSKGLKLGIYADVGNKTCAGFPGSFGYYDIDAQTFADWGVDLLKFDGCYCDSLENLADGYKDMSLALNRTGRSIVYSCEWPLYMWPFQKPNYTEIRQYCNHWRNFADIDDSWKSIKSILDWTSFNQERIVDVAGPGGWNDPDMLVIGNFGLSWNQQVTQMALWAIMAAPLFMSNDLRHISPQAKALLQDKDVIAINQDPLGKQGYQLRQGDNFEVWERPLSGLAWAVAMINRQEIGGPRSYTIAVASLGKGVACNPACFITQLLPVKRKLGFYEWTSRLRSHINPTGTVLLQLENTMQMSLKDLL | 18.2 | 1.3 | 78.2 ± 5.2 | 60 ± 4.1 | 26924 ± 2047 | 34055 ± 1657 |
| S188A (protein) MQLRNPELHLGCALALRFLALVSWDIPGARALDNGLARTPTMGWLHWERFMCNLDCQEEPDSCISEKLFMEMAELMVSEGWKDAGYEYLCIDDCWMAPQRDSEGRLQADPQRFPHGIRQLANYVHSKGLKLGIYADVGNKTCAGFPGSFGYYDIDAQTFADWGVDLLKFDGCYCDSLENLADGYKHMALALNRTGRSIVYSCEWPLYMWPFQKPNYTEIRQYCNHWRNFADIDDSWKSIKSILDWTSFNQERIVDVAGPGGWNDPDMLVIGNFGLSWNQQVTQMALWAIMAAPLFMSNDLRHISPQAKALLQDKDVIAINQDPLGKQGYQLRQGDNFEVWERPLSGLAWAVAMINRQEIGGPRSYTIAVASLGKGVACNPACFITQLLPVKRKLGFYEWTSRLRSHINPTGTVLLQLENTMQMSLKDLL | 25.7 | 1.4 | 86.3 ± 4.9 | 60.6 ± 4 | 22589 ± 1833 | 32197 ± 2515 |
| H186L (protein) MQLRNPELHLGCALALRFLALVSWDIPGARALDNGLARTPTMGWLHWERFMCNLDCQEEPDSCISEKLFMEMAELMVSEGWKDAGYEYLCIDDCWMAPQRDSEGRLQADPQRFPHGIRQLANYVHSKGLKLGIYADVGNKTCAGFPGSFGYYDIDAQTFADWGVDLLKFDGCYCDSLENLADGYKLMSLALNRTGRSIVYSCEWPLYMWPFQKPNYTEIRQYCNHWRNFADIDDSWKSIKSILDWTSFNQERIVDVAGPGGWNDPDMLVIGNFGLSWNQQVTQMALWAIMAAPLFMSNDLRHISPQAKALLQDKDVIAINQDPLGKQGYQLRQGDNFEVWERPLSGLAWAVAMINRQEIGGPRSYTIAVASLGKGVACNPACFITQLLPVKRKLGFYEWTSRLRSHINPTGTVLLQLENTMQMSLKDLL | 27.1 | 1.3 | 97.5 ± 8.2 | 70.4 ± 3.4 | 31615 ± 1833 | 42145 ± 2540 |
| H186N (protein) MQLRNPELHLGCALALRFLALVSWDIPGARALDNGLARTPTMGWLHWERFMCNLDCQEEPDSCISEKLFMEMAELMVSEGWKDAGYEYLCIDDCWMAPQRDSEGRLQADPQRFPHGIRQLANYVHSKGLKLGIYADVGNKTCAGFPGSFGYYDIDAQTFADWGVDLLKFDGCYCDSLENLADGYKNMSLALNRTGRSIVYSCEWPLYMWPFQKPNYTEIRQYCNHWRNFADIDDSWKSIKSILDWTSFNQERIVDVAGPGGWNDPDMLVIGNFGLSWNQQVTQMALWAIMAAPLFMSNDLRHISPQAKALLQDKDVIAINQDPLGKQGYQLRQGDNFEVWERPLSGLAWAVAMINRQEIGGPRSYTIAVASLGKGVACNPACFITQLLPVKRKLGFYEWTSRLRSHINPTGTVLLQLENTMQMSLKDLL | 26.8 | 1.4 | 90.3 ± 5.8 | 63.5 ± 3.1 | 28175 ± 1462 | 39509 ± 1885 |
| H186Q (protein) MQLRNPELHLGCALALRFLALVSWDIPGARALDNGLARTPTMGWLHWERFMCNLDCQEEPDSCISEKLFMEMAELMVSEGWKDAGYEYLCIDDCWMAPQRDSEGRLQADPQRFPHGIRQLANYVHSKGLKLGIYADVGNKTCAGFPGSFGYYDIDAQTFADWGVDLLKFDGCYCDSLENLADGYKQMSLALNRTGRSIVYSCEWPLYMWPFQKPNYTEIRQYCNHWRNFADIDDSWKSIKSILDWTSFNQERIVDVAGPGGWNDPDMLVIGNFGLSWNQQVTQMALWAIMAAPLFMSNDLRHISPQAKALLQDKDVIAINQDPLGKQGYQLRQGDNFEVWERPLSGLAWAVAMINRQEIGGPRSYTIAVASLGKGVACNPACFITQLLPVKRKLGFYEWTSRLRSHINPTGTVLLQLENTMQMSLKDLL | 28.5 | 1.4 | 105.3 ± 7 | 76.9 ± 4.3 | 28845 ± 2365 | 38865 ± 2966 |
